The target in assay [1] is full-length GST-EFCAB9 (mouse) (mouse, UniProt Q9DAM2 1-216). In words: pull-down.
For assay [2], the target named is GST-EFCAB9^Mut2 (D72N/E160Q) (mouse, UniProt Q9DAM2 1-216, D72N | E160Q). As to the kind of experiment: pull-down.

This note sets out measurements from doi:10.1101/459487 (bioRxiv, 2018).

Chain of GST-EFCAB9^Mut2 (D72N/E160Q) (Q9DAM2 whole entry D72N/E160Q): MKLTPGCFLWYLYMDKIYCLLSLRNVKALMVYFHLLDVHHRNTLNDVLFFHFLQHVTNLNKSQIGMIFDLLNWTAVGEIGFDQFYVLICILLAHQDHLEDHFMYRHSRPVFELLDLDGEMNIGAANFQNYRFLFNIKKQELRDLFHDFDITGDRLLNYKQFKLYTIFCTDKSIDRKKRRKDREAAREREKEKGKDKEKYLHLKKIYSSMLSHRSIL
Chain of full-length GST-EFCAB9 (mouse) (Q9DAM2 whole entry): as the sequence (Q9DAM2 whole entry D72N/E160Q) above, with N72D, Q160E counted along it

B1: 6xHis-tagged mouse CatSperζ fused to GB1 (natural protein)
chain: MEESVKPVPKHANHRRSSVRSSLYGDVRDLWSTATMSTANVSVSDVCEDFDEEGKSVRNRIRKYSQTISIRDSLNLEPEEIQQQARRELELCHGRSLEHGEDHEESETSLASSTSESLIFSLWKPHRTYWTEQQNRLPLPLMELMETEVLDILKKALITYRSTIGRNHFMTKELQGYIEGIRKRRNKRLYFLDQ
Take B1: the binding result in assay [1] and in assay [2] was “binds” in each case.
